Binding result and Kd data for three molecules are collected here from patent US20040146512A1 (RINAT NEUROSCIENCE, published 2004).

Assay [1] deals with T1, Aβ1-40 variant V40A expressed as GST fusion protein (Homo sapiens (Human), UniProt P05067 672-710, Expressed as a GST fusion protein; the GST part is left out.).
T1 construct: also called V40A (1-40); not shown: GST fusion partner and its linker
The experiment in a line: ELISA: GST fusion protein immobilized 0.25 µg per well, antibody at 2 nM, biotin goat anti-mouse (H+L) + streptavidin-HRP, OD450. For orientation: An ELISA detects its analyte on a solid surface through an enzyme-linked reagent.

Assay [2] addresses T2, Aβ1-40 variant V36A expressed as GST fusion protein (Homo sapiens (Human), UniProt P05067 672-711, Expressed as a GST fusion protein; the GST part is left out.).
T2 construct: also called V36A (1-40); not shown: GST fusion partner and its linker
The description is as above.

The target of assay [3] is T3, Aβ1-40 variant V39A expressed as GST fusion protein (Homo sapiens (Human), UniProt P05067 672-711, Expressed as a GST fusion protein; the GST part is left out.).
T3 construct: also called V39A (1-40); not shown: GST fusion partner and its linker
T3 sequence (P05067 672-711 V710A limits assumed): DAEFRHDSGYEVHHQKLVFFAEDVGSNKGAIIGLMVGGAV
Described as above.

Assay [4] concerns the target T4, Aβ1-16 peptide.
T4 construct: Soluble fragment from American Peptide Company
T4 peptide: DAEFRHDSGYEVHHQK
Nature of the assay: SPR (Biacore 3000) competition: antibody over biotin-Aβ1-40 on a streptavidin chip, with soluble peptide; % of maximal binding.

For assay [5], the target named is T5, Aβ1-38 peptide.
T5 construct: Soluble fragment from American Peptide Company
The description is as above.

In assay [6] the target is T6, Aβ1-28 peptide.
T6 construct: Soluble fragment from American Peptide Company
The assay is described as above.

In assay [7] the target is T7, Aβ1-41 expressed as GST fusion protein (Homo sapiens (Human), UniProt P05067 672-712).
T7 construct: also called 1-41 (WT); not shown: Glutathione-S-Transferase (GST) fusion partner, Amersham Pharmacia Biotech system
T7 sequence (P05067 672-712): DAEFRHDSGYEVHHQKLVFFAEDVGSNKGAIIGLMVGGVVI
The experiment in a line: ELISA: GST fusion protein immobilized 0.25 µg per well, biotin goat anti-mouse (H+L) + streptavidin-HRP, OD450.

The target of assay [8] is T8, Aβ1-43 peptide.
T8 construct: also called 1-43 (WT); β-amyloid peptide 1-43
The experiment in a line: ELISA: peptide immobilized on plate + Ab + GAMIgG(Fc)HRP, absorbance 490 nm; antibody concentration not given.

Assay [9] has as its target T9, Aβ1-42 peptide.
T9 construct: also called 1-42 (WT); β-amyloid peptide 1-42
Described as above.

The target of another assay is T10, Aβ1-40 peptide.
T10 construct: Synthetic peptide, also the immunogen; also called Aβ peptide; β-amyloid peptide 1-40
Nature of the assay: Affinity Kd of Table 2; method and format not stated in Example 1.

In assay [10] the target is T11, Aβ1-40 polypeptide coupled to biotin, immobilized on a streptavidin-coated chip (coupled to biotin (position not given)).
T11 construct: From Global Peptide Services; Used in the SPR assays; also called biotinylated Aβ peptide 1-40; immobilized Aβ1-40
Nature of the assay: SPR (BIAcore 3000), Fab over biotin-Aβ1-40 on SA chip, 'Steady-State' method.

The target in assay [11] is T12, beta amyloid precursor protein (βAPP) (Homo sapiens, UniProt P05067 18-770).
T12 construct: also called amyloid beta (A4) precursor protein
T12 sequence (P05067 other isoform, or with tags, fused parts or gaps limits assumed): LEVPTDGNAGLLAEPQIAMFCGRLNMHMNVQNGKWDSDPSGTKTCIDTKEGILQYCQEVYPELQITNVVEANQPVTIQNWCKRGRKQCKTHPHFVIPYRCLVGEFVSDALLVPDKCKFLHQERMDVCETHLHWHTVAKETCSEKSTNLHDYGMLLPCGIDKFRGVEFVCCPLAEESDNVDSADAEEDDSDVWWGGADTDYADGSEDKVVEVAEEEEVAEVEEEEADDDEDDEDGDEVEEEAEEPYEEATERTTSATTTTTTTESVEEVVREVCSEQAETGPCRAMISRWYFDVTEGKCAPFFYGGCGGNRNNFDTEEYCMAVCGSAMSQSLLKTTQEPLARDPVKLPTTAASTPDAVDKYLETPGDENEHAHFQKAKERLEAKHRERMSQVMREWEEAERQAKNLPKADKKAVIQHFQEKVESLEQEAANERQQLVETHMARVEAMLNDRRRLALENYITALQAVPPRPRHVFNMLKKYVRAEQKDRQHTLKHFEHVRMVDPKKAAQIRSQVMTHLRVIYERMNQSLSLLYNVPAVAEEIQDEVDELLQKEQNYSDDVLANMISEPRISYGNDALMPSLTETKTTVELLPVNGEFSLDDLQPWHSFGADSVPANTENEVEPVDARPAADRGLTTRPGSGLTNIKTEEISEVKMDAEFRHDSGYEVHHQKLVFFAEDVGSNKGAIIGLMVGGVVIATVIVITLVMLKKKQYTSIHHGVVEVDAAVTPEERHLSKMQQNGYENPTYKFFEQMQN
The experiment in a line: ELISA: β-APP (gD) immobilized on plate + Ab + GAMIgG(Fc)HRP, absorbance 490 nm; antibody concentration not given.

Assay [12] addresses T7, Aβ1-41 expressed as GST fusion protein. Nature of the assay: ELISA: GST fusion protein immobilized 0.25 µg per well, antibody at 2 nM, biotin goat anti-mouse (H+L) + streptavidin-HRP, OD450.
In assay [13] the target is T13, Wild-type Aβ1-40 expressed as GST fusion protein (Homo sapiens (Human), UniProt P05067 672-711).
T13 construct: Expressed in E. coli; also called Aβ1-40 (WT) GST fusion; WT Aβ1-40; not shown: Glutathione-S-Transferase (GST) fusion partner, Amersham Pharmacia Biotech system
The assay is described as above.

Assay [14] addresses T4, Aβ1-16 peptide. The experiment in a line: SPR (Biacore 3000) competition: antibody 100 nM over biotin-Aβ1-40 on a streptavidin chip, with soluble peptide at 1000 nM; % of maximal binding. A general note: Surface plasmon resonance follows binding to a sensor surface in real time, without labels.
Assay [15] addresses T5, Aβ1-38 peptide. The assay is described as above.
The target in assay [16] is T6, Aβ1-28 peptide. The assay is described as above.
The target of assay [17] is T8, Aβ1-43 peptide. The experiment in a line: ELISA: peptide immobilized on plate + Ab + GAMIgG(Fc)HRP, absorbance 490 nm.
In assay [18] the target is T9, Aβ1-42 peptide. The description is as above.

T2 sequence (P05067 672-711 V707A limits assumed): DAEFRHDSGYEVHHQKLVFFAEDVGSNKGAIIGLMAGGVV
T1 sequence (P05067 672-711 V711A limits assumed): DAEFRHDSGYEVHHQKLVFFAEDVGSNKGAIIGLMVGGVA

B1: monoclonal antibody 2286 (produced by hybridoma 8A1.2A1) (antibody, V domains shown)
VH: EVKLLESGGGLVQPGGSLKLSCAASGFDFSRYWMNWVRQAPGKGLEWIGEINPDSSTINYTPSLKDKFIISRDNAKNTLYLQMSKVRSEDTALYYCARQMGYWGQGTTLTVSS
VL: DIQMTQTTSSLSASLGDRVTISCSASQGISNYLNWFQQKPDGTVKLLIYYTSSLHSGVPSRFSGSGSGTDYSLTISNLEPEDIATYYCQQYRKLPYTFGGGTKLEIKR
In the case of B1, the binding result in assay [1] is on record as “binds”; in assay [2] it was “binds”; in assay [3], “binds”; with Aβ1-16 peptide [4] it was “no binding”; with Aβ1-38 peptide [5] it was “no binding”; with Aβ1-28 peptide [6], “no binding”. Moreover, the binding result in assay [7] is on record as “no binding (tested: 2 nM)”; in the assay with Aβ1-43 peptide [8], “no binding”; with Aβ1-42 peptide [9], “no binding”. Binding in the assay with Aβ1-40 peptide was put at a Kd of 2.7 nM.

B2: Mouse 2286 Fab (Fab, V domains shown)
VH: B1 VH
VL: B1 VL
As for B2, the affinity in [10], expressed as Kd, was 76 nM.

B3: monoclonal antibody 2324 (produced by hybridoma 10B10.2E6) (antibody, V domains shown)
VH: VTLKESGPGILKPSQTLSLTCSFSGFSLSTSGMGVGWIRQSSGKGLEWLAHIWWDDDKYYNPSLKSQLTISKDTSRNQVFLKITSVDTADTATYYCARRGVRHRDYFDYWGQGTTLTVSS
VL: DVLMTQTPLSLPVSLGDQASISCRSSQSIVHSNGNTYLEWYLQKPGQSPKLLIYKVSNRFSGVPDRFSGSGSGTDFTLKISRVEAEDLGVYYCFQGSRVPLTFGAGTKLELKR
With B3, the binding result is “no binding” in assay [11]; “binds” in assay [12]; “binds” in assay [1]; “binds” in assay [2]; “binds” in assay [13]; “binds” in [3]. Moreover, the binding result with Aβ1-16 peptide [14], with Aβ1-38 peptide [15], with Aβ1-28 peptide [16], in the assay with Aβ1-43 peptide [17] and with Aβ1-42 peptide [18] was “binds” in each case. For the same molecule, in the assay with Aβ1-40 peptide, binding was characterised by a dissociation constant (Kd) of 0.9 nM.

Broadly, the Kd is the constant that tells how readily two partners part at equilibrium. A higher Kd goes with lower affinity.
